Measurements published in paper PMC10361598.
Like-named read-outs stand apart in the source and are kept apart here.

Experiments:
[1] = target: CXCR4^QTY-Fc (not stated | rabbit); assay: graphene field-effect transistor array
[2] = target: CXCR4^QTY-Fc (not stated | rabbit); assay: graphene field-effect transistor array; remark: listed apart in the source

In the case of “recombinant HIV coat glycoprotein gp_(41–120)”, the Kd [1] is reported as 19.1 nM and the Kd [2] is reported as 5.8 nM.
